# Source: US20130064836A1 (Novartis, published 2013)
# T1: cynomolgus C5 (Macaca fascicularis) (cynomolgus (Macaca fascicularis), Beta and alpha chains are joined by disulfide bonds; the protein is a serum glycoprotein.)
# T1 beta: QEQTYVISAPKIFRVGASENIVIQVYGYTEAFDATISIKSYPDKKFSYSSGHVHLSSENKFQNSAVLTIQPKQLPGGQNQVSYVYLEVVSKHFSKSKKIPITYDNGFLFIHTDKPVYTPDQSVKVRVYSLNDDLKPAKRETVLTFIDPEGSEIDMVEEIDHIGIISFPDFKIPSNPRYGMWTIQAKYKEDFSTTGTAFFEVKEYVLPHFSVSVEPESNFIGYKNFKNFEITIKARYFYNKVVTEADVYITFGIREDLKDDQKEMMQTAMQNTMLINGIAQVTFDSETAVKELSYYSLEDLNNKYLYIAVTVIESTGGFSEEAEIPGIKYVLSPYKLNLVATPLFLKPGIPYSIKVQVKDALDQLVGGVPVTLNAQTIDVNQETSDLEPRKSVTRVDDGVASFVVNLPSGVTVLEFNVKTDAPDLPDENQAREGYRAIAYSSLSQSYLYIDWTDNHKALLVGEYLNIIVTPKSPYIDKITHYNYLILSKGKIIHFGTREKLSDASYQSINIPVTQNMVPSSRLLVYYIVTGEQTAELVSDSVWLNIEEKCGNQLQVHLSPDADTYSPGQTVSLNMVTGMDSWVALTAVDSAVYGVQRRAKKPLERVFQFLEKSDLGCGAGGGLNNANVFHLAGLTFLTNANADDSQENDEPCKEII
# T1 alpha: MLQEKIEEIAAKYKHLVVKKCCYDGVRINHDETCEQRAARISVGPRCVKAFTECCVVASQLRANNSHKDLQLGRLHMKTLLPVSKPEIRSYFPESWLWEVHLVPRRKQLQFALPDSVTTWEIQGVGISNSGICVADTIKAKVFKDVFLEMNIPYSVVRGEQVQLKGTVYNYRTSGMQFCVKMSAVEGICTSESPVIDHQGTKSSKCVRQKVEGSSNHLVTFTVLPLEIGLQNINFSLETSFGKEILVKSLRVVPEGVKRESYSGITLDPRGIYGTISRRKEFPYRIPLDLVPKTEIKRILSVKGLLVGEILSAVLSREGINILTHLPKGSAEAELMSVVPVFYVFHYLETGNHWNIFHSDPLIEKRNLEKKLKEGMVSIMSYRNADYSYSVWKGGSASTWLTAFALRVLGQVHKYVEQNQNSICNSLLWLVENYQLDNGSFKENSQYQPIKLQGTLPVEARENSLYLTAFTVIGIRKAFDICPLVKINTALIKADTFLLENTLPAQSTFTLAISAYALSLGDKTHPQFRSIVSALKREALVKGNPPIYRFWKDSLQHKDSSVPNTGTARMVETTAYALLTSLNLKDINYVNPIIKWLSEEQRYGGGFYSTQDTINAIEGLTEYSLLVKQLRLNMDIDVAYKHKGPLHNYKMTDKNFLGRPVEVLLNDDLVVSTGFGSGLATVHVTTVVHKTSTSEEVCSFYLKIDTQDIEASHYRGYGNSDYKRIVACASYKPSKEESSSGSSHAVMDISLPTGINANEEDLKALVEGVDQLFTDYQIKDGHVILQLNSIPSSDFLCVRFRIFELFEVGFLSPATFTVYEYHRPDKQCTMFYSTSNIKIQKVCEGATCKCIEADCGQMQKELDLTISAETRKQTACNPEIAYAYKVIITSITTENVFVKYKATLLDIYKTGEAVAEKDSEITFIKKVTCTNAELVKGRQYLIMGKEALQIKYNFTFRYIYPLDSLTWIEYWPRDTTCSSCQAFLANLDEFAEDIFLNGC
# Columns and labels:
# human complement C3 = molecular target: T2, human complement C3 (human, UniProt P01024 23-667; P01024 672-1663); experiment: solution ELISA: Fab with biotinylated antigen on NeutrAvidin plate, His-tag detection [huC3 panel]
# T2 construct: Counter target in the ELISAs, coated directly or biotinylated; also called human C3
# Experimental: (§1) Fabs were incubated with biotinylated antigen on a Neutravidin plate and detected via the histidin tag.
# [1] = molecular target: T1, cynomolgus C5 (Macaca fascicularis); experiment: cell-based or functional assay
# [2] = molecular target: T3, human complement C5 protein (human, UniProt P01031 19-673; P01031 678-1676, Beta and alpha chains are joined by disulfide bonds. C5 was biotinylated in some assays.); experiment: SET (MSD), purified Fab
# T3 construct: Mature C5 is a beta and an alpha chain joined by disulfide bonds after loss of the RPRR linker; also called human C5; hu C5
# Experimental: (§2) Streptavidin MSD plates were coated with 0.2 μg/ml biotinylated human C5 (30 μl/well) and blocked with 5% BSA in PBS. Subsequently the equilibrated samples were transferred to those plates (30 μl per well) and incubated for 20 min.
# [3] = molecular target: T1, cynomolgus C5 (Macaca fascicularis); experiment: SET (MSD), purified Fab
# Experimental: as §2
# [4] = molecular target: T3, human complement C5 protein; experiment: cell-based or functional assay
# [5] = molecular target: T3, human complement C5 protein; experiment: cell-based or functional assay; remark: listed apart in the source
# [6] = molecular target: T3, human complement C5 protein; experiment: solution ELISA: Fab with biotinylated antigen on NeutrAvidin plate, His-tag detection [huC5 panel]
# Experimental: as §1
# [7] = molecular target: T1, cynomolgus C5 (Macaca fascicularis); experiment: solution ELISA: Fab with biotinylated antigen on NeutrAvidin plate, His-tag detection [cynoC5 panel]
# Experimental: as §1
# T2 sequence (P01024 23-667 limits assumed, chain 1 of 2): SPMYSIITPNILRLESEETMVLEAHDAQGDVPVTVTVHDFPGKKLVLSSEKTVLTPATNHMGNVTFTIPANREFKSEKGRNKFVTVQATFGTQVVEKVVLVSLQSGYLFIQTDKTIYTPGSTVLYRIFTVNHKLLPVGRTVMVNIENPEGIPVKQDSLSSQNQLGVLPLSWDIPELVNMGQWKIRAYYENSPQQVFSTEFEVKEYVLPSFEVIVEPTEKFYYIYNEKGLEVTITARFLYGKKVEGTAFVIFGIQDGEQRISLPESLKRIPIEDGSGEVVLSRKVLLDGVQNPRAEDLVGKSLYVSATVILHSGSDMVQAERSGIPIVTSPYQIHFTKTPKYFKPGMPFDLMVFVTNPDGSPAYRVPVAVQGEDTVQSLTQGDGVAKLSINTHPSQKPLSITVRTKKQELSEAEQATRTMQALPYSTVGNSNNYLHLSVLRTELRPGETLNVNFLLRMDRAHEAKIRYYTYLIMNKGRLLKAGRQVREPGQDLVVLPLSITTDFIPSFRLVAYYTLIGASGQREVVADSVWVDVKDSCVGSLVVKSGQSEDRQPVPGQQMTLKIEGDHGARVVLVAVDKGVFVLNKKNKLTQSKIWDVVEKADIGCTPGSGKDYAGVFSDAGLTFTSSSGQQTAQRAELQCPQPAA
# T2 sequence (P01024 672-1663 limits assumed, chain 2 of 2): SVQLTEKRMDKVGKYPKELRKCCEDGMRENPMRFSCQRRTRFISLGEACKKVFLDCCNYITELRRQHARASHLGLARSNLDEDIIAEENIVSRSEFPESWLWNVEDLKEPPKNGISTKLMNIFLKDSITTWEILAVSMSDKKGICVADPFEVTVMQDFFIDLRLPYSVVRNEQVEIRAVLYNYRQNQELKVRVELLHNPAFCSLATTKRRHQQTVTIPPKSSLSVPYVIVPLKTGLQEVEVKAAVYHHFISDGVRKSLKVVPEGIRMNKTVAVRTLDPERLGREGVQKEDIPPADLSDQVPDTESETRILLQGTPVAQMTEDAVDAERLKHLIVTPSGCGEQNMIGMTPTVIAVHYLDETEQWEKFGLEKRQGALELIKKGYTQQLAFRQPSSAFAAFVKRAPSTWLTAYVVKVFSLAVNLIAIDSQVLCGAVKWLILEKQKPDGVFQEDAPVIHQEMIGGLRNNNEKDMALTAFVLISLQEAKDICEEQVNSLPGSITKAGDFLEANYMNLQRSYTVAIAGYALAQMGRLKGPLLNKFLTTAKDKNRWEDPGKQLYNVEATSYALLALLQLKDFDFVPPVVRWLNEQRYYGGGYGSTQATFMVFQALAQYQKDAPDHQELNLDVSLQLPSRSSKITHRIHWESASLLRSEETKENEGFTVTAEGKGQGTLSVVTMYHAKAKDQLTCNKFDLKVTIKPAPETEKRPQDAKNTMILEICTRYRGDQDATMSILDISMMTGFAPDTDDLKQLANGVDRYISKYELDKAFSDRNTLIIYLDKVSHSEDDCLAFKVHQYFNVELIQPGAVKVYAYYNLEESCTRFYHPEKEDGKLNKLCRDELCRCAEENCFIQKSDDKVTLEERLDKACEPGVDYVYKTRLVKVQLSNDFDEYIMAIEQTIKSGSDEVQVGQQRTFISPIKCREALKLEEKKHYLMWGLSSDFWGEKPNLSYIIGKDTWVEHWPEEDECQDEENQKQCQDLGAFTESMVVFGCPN
binder,measurement,setting,value
"MOR07871 (Fab, V domains shown, light CS or A) VH: QVQLVQSGAEVKKPGESLKISCKGSGYSFTSYYIGWVRQMPGKGLEWMGIIDPSDSHTTYSPSFQGQVTISADKSISTAYLQWSSLKASDTAMYYCARYMMRGFDHWGQGTLVTVSS VL: DIELTQPPSVSVAPGQTARISCSGDSLGDYYAYWYQQKPGQAPVLVIYKDNNRPSGIPERFSGSNSGNTATLTISGTQAEDEADYYCQTWDTGESGVFGGGTKLTVLG",binding result,human complement C3,no binding (tested: 100 nM)
same,"IC50; hemolysis AP, 100 pM cyno C5 in 20% human C5-depleted serum [panel a]",[1],0.111 nM
same,"IC50; hemolysis AP, 100 pM cyno C5 in 20% human C5-depleted serum [panel f]",[1],0.137 nM
same,Kd,[2],0.003 nM
same,Kd,[3],0.004 nM
same,"IC50; hemolysis AP, 100 pM human C5 [panel j]",[4],36.6 pM
same,"IC50; hemolysis AP, 100 pM human C5 [panel f]",[5],54.5 pM
same,EC50,[6],0.849 nM
same,EC50,[7],0.617 nM
